Binding result and Kd data for 1 molecule are collected here from patent US20080187528A1 (FUNCTIONAL GENETICS, published 2008).

The target of assay [1] is T1, truncated (31-326) Ebola VP40 (Ebola virus (EBOV), UniProt Q05128 31-326).
T1 sequence: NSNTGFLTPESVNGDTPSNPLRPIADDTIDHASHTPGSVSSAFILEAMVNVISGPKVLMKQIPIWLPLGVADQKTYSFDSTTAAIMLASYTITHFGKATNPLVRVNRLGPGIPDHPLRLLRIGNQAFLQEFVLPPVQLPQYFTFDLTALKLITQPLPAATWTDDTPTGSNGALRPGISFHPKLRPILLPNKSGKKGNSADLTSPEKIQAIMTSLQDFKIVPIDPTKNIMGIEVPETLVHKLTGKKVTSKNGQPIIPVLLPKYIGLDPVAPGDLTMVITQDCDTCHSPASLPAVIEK
The experiment in a line: Far Western.

For assay [2], the target named is biotinylated peptide Bio-… containing 11 amino acid residues from the N terminus of the Ebola VP40 (Ebola virus (EBOV)).

B1: purified TSG101 protein that contains only the UEV domain (other)
chain: AVSESQLKKMVSKYKYRDLTVRETVNVITLYKDLKPVLDSYVFNDGSSRELMNLTGTIPVPYRGNTYNIPICLWLLDTYPYNPPICFVKPTSSMTIKTGKHVDANGKIYLPYLHEWKHPQSDLLGLIQVMIVVFGDEPPVFSRP
As a reminder, the Kd is the constant that tells how readily two partners part at equilibrium. High values mean lower affinity, low ones higher affinity. On to B1, for which, in assay [1], the binding result is “no binding”. Moreover, in assay [2], the Kd is 2 µM.
